Laboratory results: paper PMC3128523

Molecular target: GST-tagged constitutively active Rab1A Q67L (Dictyostelium) (UniProt P34139)
Test: pull-down

Chain of UniProt P34139 (P34139 whole entry Q67L): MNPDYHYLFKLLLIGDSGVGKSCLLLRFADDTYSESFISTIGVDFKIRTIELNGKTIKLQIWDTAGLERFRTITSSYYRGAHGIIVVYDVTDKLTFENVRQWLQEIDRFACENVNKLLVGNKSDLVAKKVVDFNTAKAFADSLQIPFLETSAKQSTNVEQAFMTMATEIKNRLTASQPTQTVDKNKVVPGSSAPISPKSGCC

fold of Roco2 pulled down against wild-type Rab1A: > 5 fold
Substance: T7-tagged Roco2 (wild type) (enzyme)
